The text below walks through data of patent US20170292963A1 (Johns Hopkins, published 2017).

In the experiment the target is T1, Human NPTX2 (native protein in human CSF; antigen of the anti-human NPTX2 antibody) (human, UniProt P47972 17-431).
T1 construct: In CSF the protein is disulfide-linked with NPTX1 in heterocomplexes; also called Narp
T1 sequence: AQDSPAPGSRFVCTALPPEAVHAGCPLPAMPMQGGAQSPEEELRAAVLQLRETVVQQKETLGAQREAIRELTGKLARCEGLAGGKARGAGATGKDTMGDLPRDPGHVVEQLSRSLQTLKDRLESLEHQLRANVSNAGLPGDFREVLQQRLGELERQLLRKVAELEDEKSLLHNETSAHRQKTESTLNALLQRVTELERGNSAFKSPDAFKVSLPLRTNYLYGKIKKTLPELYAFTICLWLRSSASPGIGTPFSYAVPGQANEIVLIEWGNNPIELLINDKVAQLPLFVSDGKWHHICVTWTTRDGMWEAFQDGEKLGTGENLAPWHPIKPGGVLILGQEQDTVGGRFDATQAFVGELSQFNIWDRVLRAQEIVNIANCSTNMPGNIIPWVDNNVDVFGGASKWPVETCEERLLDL
In words: co-immunoprecipitation from human CSF.

B1: Human NPTX1 (native protein in human CSF; antigen of the anti-human NPTX1 antibody) (other)
chain: QDFGPTRFICTSVPVDADMCAASVAAGGAEELRSSVLQLRETVLQQKETILSQKETIRELTAKLGRCESQSTLDPGAGEARAGGGRKQPGSGKNTMGDLSRTPAAETLSQLGQTLQSLKTRLENLEQYSRLNSSSQTNSLKDLLQSKIDELERQVLSRVNTLEEGKGGPRNDTEERVKIETALTSLHQRISELEKGQKDNRPGDKFQLTFPLRTNYMYAKVKKSLPEMYAFTVCMWLKSSATPGVGTPFSYAVPGQANELVLIEWGNNPMEILINDKVAKLPFVINDGKWHHICVTWTTRDGVWEAYQDGTQGGSGENLAPYHPIKPQGVLVLGQEQDTLGGGFDATQAFVGELAHFNIWDRKLTPGEVYNLATCSTKALSGNVIAWAESHIEIYGGATKWTFEACRQIN
Take B1: the binding result was “binds”.
